Values of other authors in PMC10889394.

What was measured:
[1] = target: SFTI-1 (Helianthus annuus) (UniProt Q4GWU5)
[2] = target: SFTI-TCTR-N12N14 (synthetic construct)
[3] = target: recombinant hirudin variant 1 (Hirudo medicinalis) (UniProt P01050)
[4] = target: cystatin E (Homo sapiens) (UniProt Q15828)
[5] = target: TIMP-2 (Homo sapiens) (UniProt P16035)
TIMP-2 (Homo sapiens), sequence (P16035 27-220): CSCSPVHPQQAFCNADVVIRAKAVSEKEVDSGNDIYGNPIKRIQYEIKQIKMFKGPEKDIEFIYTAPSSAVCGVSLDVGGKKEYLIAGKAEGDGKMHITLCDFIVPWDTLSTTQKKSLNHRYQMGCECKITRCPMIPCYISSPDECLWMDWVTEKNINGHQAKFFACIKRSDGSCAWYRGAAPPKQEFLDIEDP

β-trypsin, sequence (P00760 149-246): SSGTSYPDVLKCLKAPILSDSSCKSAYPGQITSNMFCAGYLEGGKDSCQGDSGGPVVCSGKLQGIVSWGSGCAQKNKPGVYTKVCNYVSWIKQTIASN
cystatin E (Homo sapiens), sequence (Q15828 29-149): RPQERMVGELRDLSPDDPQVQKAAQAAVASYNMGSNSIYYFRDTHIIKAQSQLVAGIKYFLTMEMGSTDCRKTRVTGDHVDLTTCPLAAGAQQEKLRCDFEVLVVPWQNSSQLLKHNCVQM

For β-trypsin (from UniProt P00760), the Ki [1] is given as 0.017 nM and the Ki [2] is given as 0.7 nM.
In the case of thrombin (from UniProt P00734), the Ki [3] is listed as 0.00018 nM.
For legumain (from UniProt Q99538), the Ki [4] is given as 0.011 nM.
For “MMP-14 catalytic domain (from UniProt P50281)”, the Ki [5] is listed as 0.104 nM.
